Laboratory results as given in patent publication EP4674868A1 (Jiangsu Hengrui Pharmaceuticals Co., Ltd., dated 2026).
Read-outs that look alike come from different tables or passages of the source. Values belong to the binder of their own block, whether it stands above or below them.

Experiments:
[1] = biological target: T1, human CD40 on the surface of HEK293 cells (HEK293-HuCD40) (human, UniProt P25942 21-277); assay: cell-based or functional assay
[2] = biological target: T1, human CD40 on the surface of HEK293 …; assay: FACS, HEK293 cells transiently expressing human CD40
[3] = biological target: T1, human CD40 on the surface of HEK293 …; assay: FACS, HEK293-HuCD40 cells
[4] = biological target: T1, human CD40 on the surface of HEK293 …; assay: FACS, HEK293-HuCD40 cells; remark: listed apart in the source
[5] = biological target: T2, human 4-1BB on the surface of HEK293 cells (HEK293-Hu4-1BB) (human, UniProt Q07011 24-255); assay: cell-based or functional assay
[6] = biological target: T1, human CD40 on the surface of HEK293 …; assay: cell-based or functional assay; remark: listed apart in the source
[7] = biological target: T2, human 4-1BB on the surface of HEK293 …; assay: FACS, HEK293-Hu4-1BB cells
[8] = biological target: T1, human CD40 on the surface of HEK293 …; assay: cell-based or functional assay; remark: listed apart in the source
[9] = biological target: T2, human 4-1BB on the surface of HEK293 …; assay: FACS, HEK293-Hu4-1BB cells; remark: listed apart in the source
[10] = biological target: T3, human FAP on the surface of CHO-K1 cells (CHO-K1-HuFAP) (human, UniProt Q12884 1-760); assay: FACS, CHO-K1-HuFAP cells
T3 construct: whole, on cells; also called CHO cell line overexpressing human FAP; FAP on the surface of CHO-K1-HuFAP cells

[11] = biological target: T1, human CD40 on the surface of HEK293 …; assay: cell-based or functional assay; remark: listed apart in the source
[12] = biological target: T3, human FAP on the surface of CHO-K1 …; assay: FACS, CHO-K1-HuFAP cells; remark: listed apart in the source
[13] = biological target: T2, human 4-1BB on the surface of HEK293 …; assay: cell-based or functional assay; remark: listed apart in the source
[14] = biological target: T2, human 4-1BB on the surface of HEK293 …; assay: FACS, HEK293-Hu4-1BB cells; remark: listed apart in the source
[15] = biological target: T2, human 4-1BB on the surface of HEK293 …; assay: FACS, HEK293-Hu4-1BB cells; remark: listed apart in the source
[16] = biological target: T2, human 4-1BB on the surface of HEK293 …; assay: cell-based or functional assay; remark: listed apart in the source
[17] = biological target: T2, human 4-1BB on the surface of HEK293 …; assay: FACS, HEK293-Hu4-1BB cells; remark: listed apart in the source
[18] = biological target: T4, h-FAP-His (recombinant human fibroblast activation protein, Leu26-Asp760, His-tagged) (human, UniProt Q12884 26-760); assay: SPR, antibody captured by anti-human IgG (Fc) on CM5 chip, h-FAP-His as analyte
T4 construct: range 26-760; Bought protein with a His tag; also called human FAP-His protein; His-tagged FAP recombinant protein

[19] = biological target: T4, h-FAP-His (recombinant human fibroblast …); assay: ELISA, plate coated with human FAP-His
[20] = biological target: T3, human FAP on the surface of CHO-K1 …; assay: FACS, CHO cell line overexpressing human FAP
[21] = biological target: T2, human 4-1BB on the surface of HEK293 …; assay: cell-based or functional assay; remark: listed apart in the source

- FcγRIIb-mediated activation of HEK-Blue CD40L cells, EC50 [1]: 0.006 nM
- EC50 [2]: 1.25 nM
B2: humanized anti-CD40 nanobody A297V3 linked to human IgG1-Fc (C220A, S267E, L328F) (Fc fusion)
chain: EVQLVESGGGLVQPGGSLRLSCAASGFTFSRYGMKWVRQAPGKGLEWVSTINSHGDTTYYADSVKGRFTISRDNAKNSLYLQMNSLRAEDTAVYYCLRIDYSDYSSRGQGTLVTVSSEPKSADKTHTCPPCPAPELLGGPSVFLFPPKPKDTLMISRTPEVTCVVVDVEHEDPEVKFNWYVDGVEVHNAKTKPREEQYNSTYRVVSVLTVLHQDWLNGKEYKCKVSSKAFPAPIEKTISKAKGQPREPQVYTLPPSRDELTKNQVSLTCLVKGFYPSDIAVEWESNGQPENNYKTTPPVLDSDGSFFLYSKLTVDKSRWQQGNVFSCSVMHEALHNHYTQKSLSLSPGK
notes: VHH-Fc

- EC50 [3]: 6.85 nM
- Maximum fluorescence value [3]: 55200
- EC50 [4]: 4.77 nM
- Maximum fluorescence value [4]: 54000
- 4-1BB/NF-κB luciferase reporter, CD40-crosslinked, Fold change in Emax [5]: 1.07 fold
- 4-1BB/NF-κB luciferase reporter, FAP-crosslinked, Fold change in Emax [5]: 1.01 fold
- 4-1BB/NF-κB luciferase reporter, uncrosslinked, Fold change in Emax [5]: 1.1 fold
- CD40/NF-κB reporter (HEK-Blue CD40L), 4-1BB-crosslinked, Fold change in Emax [6]: 5 fold
- CD40/NF-κB reporter (HEK-Blue CD40L), FAP-crosslinked, EC50 [6]: 0.23 nM
- CD40/NF-κB reporter (HEK-Blue CD40L), FAP-crosslinked, Fold change in Emax [6]: 6.47 fold
- CD40/NF-κB reporter (HEK-Blue CD40L), uncrosslinked, Fold change in Emax [6]: 4.57 fold
- Maximum fluorescence value [7]: 70
- CD40/NF-κB reporter (HEK-Blue CD40L), 4-1BB-crosslinked, Fold change in Emax [8]: 4.27 fold
- CD40/NF-κB reporter (HEK-Blue CD40L), FAP-crosslinked, EC50 [8]: 0.35 nM
- CD40/NF-κB reporter (HEK-Blue CD40L), FAP-crosslinked, Fold change in Emax [8]: 11.3 fold
- CD40/NF-κB reporter (HEK-Blue CD40L), uncrosslinked, Fold change in Emax [8]: 3.73 fold
- Maximum fluorescence value [9]: 73
- EC50 [10]: 2.73 nM
- Maximum fluorescence value [10]: 82700
- CD40/NF-κB reporter (HEK-Blue CD40L), 4-1BB-crosslinked, Fold change in Emax [11]: 8.42 fold
- CD40/NF-κB reporter (HEK-Blue CD40L), FAP-crosslinked, EC50 [11]: 0.025 nM
- CD40/NF-κB reporter (HEK-Blue CD40L), FAP-crosslinked, Fold change in Emax [11]: 11.9 fold
- CD40/NF-κB reporter (HEK-Blue CD40L), uncrosslinked, Fold change in Emax [11]: 7.05 fold
- EC50 [12]: 1.72 nM
- Maximum fluorescence value [12]: 77200
- 4-1BB/NF-κB luciferase reporter, CD40-crosslinked, Fold change in Emax [13]: 1.1 fold
- 4-1BB/NF-κB luciferase reporter, FAP-crosslinked, Fold change in Emax [13]: 1.05 fold
- 4-1BB/NF-κB luciferase reporter, uncrosslinked, Fold change in Emax [13]: 1.06 fold
B3: Ab10-A12V2-2 (FAP/CD40 bispecific antibody molecule, control) (bispecific antibody, human IgG1, kappa, L234A L235A)
heavy: not shown
light: DIQMTQSPSSVSASVGDRVTITCRASQGISSWLAWYQQKPGKAPKLLIYAASSLQSGVPSRFSGSGSGTDFTLTISSLQPEDFATYYCQQANSFPPAFGQGTKVEIKRTVAAPSVFIFPPSDEQLKSGTASVVCLLNNFYPREAKVQWKVDNALQSGNSQESVTEQDSKDSTYSLSSTLTLSKADYEKHKVYACEVTHQGLSSPVTKSFNRGEC

- EC50 [15]: 0.62 nM
- Maximum fluorescence value [15]: 53800
- EC50 [17]: 0.62 nM
B5: C5_V2-YTI (TCE-optimized C5_V2, F99Y Kabat) linked to human IgG1-Fc (Fc fusion)
chain: QVQLVESGGGLVQPGGSLRLSCSASGFTFSSYAMSWVRQAPGKGLEWVSDINSGGESTFYEDSVKGRFTISRDNAKNTLYLQMNSLRAEDTAVYYCAKHPLTYTIATMNDYDYWGQGTLVTVSSEPKSADKTHTCPPCPAPELLGGPSVFLFPPKPKDTLMISRTPEVTCVVVDVEHEDPEVKFNWYVDGVEVHNAKTKPREEQYNSTYRVVSVLTVLHQDWLNGKEYKCKVSSKAFPAPIEKTISKAKGQPREPQVYTLPPSRDELTKNQVSLTCLVKGFYPSDIAVEWESNGQPENNYKTTPPVLDSDGSFFLYSKLTVDKSRWQQGNVFSCSVMHEALHNHYTQKSLSLSPGK

Further lines, the binder ahead of its results:

B1: anti-CD40 nanobody A297 linked to human IgG1-Fc (C220A, S267E, L328F) (Fc fusion)
chain: QVQLVESGGGMVEPGGSLRLSCAASGFTFSRYGMKWVRQAPGKGPEWVSTINSHGDTTYYADSVKGRFTISRDNAQNTVYLQMNSLKPEDTALYYCLRIDYSDYSSRGQGTQVTVSSEPKSADKTHTCPPCPAPELLGGPSVFLFPPKPKDTLMISRTPEVTCVVVDVEHEDPEVKFNWYVDGVEVHNAKTKPREEQYNSTYRVVSVLTVLHQDWLNGKEYKCKVSSKAFPAPIEKTISKAKGQPREPQVYTLPPSRDELTKNQVSLTCLVKGFYPSDIAVEWESNGQPENNYKTTPPVLDSDGSFFLYSKLTVDKSRWQQGNVFSCSVMHEALHNHYTQKSLSLSPGK
notes: VHH-Fc; no linker between VHH and Fc is stated
- FcγRIIb-mediated activation of HEK-Blue CD40L cells, EC50 [1]: 0.243 nM
- EC50 [2]: 1.12 nM

B4: humanized anti-4-1BB nanobody C5_V2 linked to human IgG1-Fc (Fc fusion)
chain: QVQLVESGGGLVQPGGSLRLSCSASGFTFSSYAMSWVRQAPGKGLEWVSDINSGGESTFYEDSVKGRFTISRDNAKNTLYLQMNSLRAEDTAVYYCAKHPLTFTIATMNDYDYWGQGTLVTVSSEPKSADKTHTCPPCPAPELLGGPSVFLFPPKPKDTLMISRTPEVTCVVVDVEHEDPEVKFNWYVDGVEVHNAKTKPREEQYNSTYRVVSVLTVLHQDWLNGKEYKCKVSSKAFPAPIEKTISKAKGQPREPQVYTLPPSRDELTKNQVSLTCLVKGFYPSDIAVEWESNGQPENNYKTTPPVLDSDGSFFLYSKLTVDKSRWQQGNVFSCSVMHEALHNHYTQKSLSLSPGK
- EC50 [14]: 1.62 nM
- Maximum fluorescence value [14]: 1030
- EC50 [15]: 0.98 nM
- Maximum fluorescence value [15]: 53700
- Activation of HEK293-4-1BB cells (NF-κB reporter), Fold change in Emax [16]: 1.37 fold
- FcγRIIb-mediated activation of HEK293-4-1BB cells (NF-κB reporter), Fold change in Emax [16]: 2.02 fold
- EC50 [17]: 0.98 nM

B6: anti-human FAP monoclonal antibody Ab10 (antibody, human IgG1, kappa, L234A L235A, V domains shown)
VH: QVQLQQSGVEVKKPGASVTVSCRASGYSFADHFIHWVRQAPGQGFQWMGWINPNRGVTHHAQDFQGRVAMTRDMSTDTVYMELTSLRSDDTAVYYCARDASLTARPYYFYGFDVWGQGTLVTVSS
VL: DIQMTQSPSSVSASVGDRVTITCRASQGISSWLAWYQQKPGKAPKLLIYAASSLQSGVPSRFSGSGSGTDFTLTISSLQPEDFATYYCQQANSFPPAFGQGTKVEIKR
notes: Full-length heavy and light chains with human constant regions; also called anti-FAP antibody Ab10
- Kd [18]: 0.245 nM
- Ratio of KD of 28H1 to KD of test antibody [18]: 5.3
- Ratio of Kd of 28H1 to Kd of test antibody [18]: 3.5
- koff [18]: 7.28e-05 s⁻¹
- kon [18]: 297000 M⁻¹ s⁻¹
- EC50 [19]: 92 µg/mL
- EC50 [20]: 0.000432 µg/mL

B7: Urelumab (positive control anti-4-1BB antibody) (antibody, V domains shown)
VH: QVQLQQWGAGLLKPSETLSLTCAVYGGSFSGYYWSWIRQSPEKGLEWIGEINHGGYVTYNPSLESRVTISVDTSKNQFSLKLSSVTAADTAVYYCARDYGPGNYDWYFDLWGRGTLVTVSS
VL: EIVLTQSPATLSLSPGERATLSCRASQSVSSYLAWYQQKPGQAPRLLIYDASNRATGIPARFSGSGSGTDFTLTISSLEPEDFAVYYCQQRSNWPPALTFGGGTKVEIK
- EC50 [14]: 1.18 nM
- Maximum fluorescence value [14]: 1000
- EC50 [15]: 1.64 nM
- Maximum fluorescence value [15]: 39700
- Activation of HEK293-4-1BB cells (NF-κB reporter), Fold change in Emax [16]: 1.7 fold
- FcγRIIb-mediated activation of HEK293-4-1BB cells (NF-κB reporter), Fold change in Emax [16]: 2.61 fold
- EC50 [17]: 1.64 nM
- 4-1BB/NF-κB luciferase reporter, FcγRIIb crosslinking, EC50 [21]: 0.027 nM
- 4-1BB/NF-κB luciferase reporter, no FcγRIIb crosslinking, EC50 [21]: 2.19 nM
